{"source": "paper PMC6314547", "about": "(The Journal of Cell Biology, 2019)", "proteins": {"B1": {"name": "FAM92A1 BAR domain (1–219 aa) (domain or fragment, UniProt A1XBS5 1-219, looked up)", "chain": "MMRRTLENRNAQTKQLQTAVSNVEKHFGELCQIFAAYVRKTARLRDKADLLVNEINAYAATETPHLKLGLMNFADEFAKLQDYRQAEVERLEAKVVEPLKTYGTIVKMKRDDLKATLTARNREAKQLTQLERTRQRNPSDRHVISQAETELQRAAMDASRTSRHLEETINNFERQKMKDIKTIFSEFITIEMLFHGKALEVYTAAYQNIQNIDEDEDLE"}}, "molecular_target": "the molecule itself", "experiment": "SEC-MALS", "data": [{"protein": "B1", "values": [{"measurement": "stoichiometry N", "value": 2}]}]}
